Assays:
[1] = target: human IGF-1R(1-903)-Fc (human) (UniProt P08069); assay: ELISA on hIGF-1R-Fc; competitor Zenon-labeled αIR3; +++++ = 90-100%
[2] = target: human IGF-1R(1-903)-Fc (human) (UniProt P08069); assay: ELISA, blocking of 320 nM IGF-1 His on biotinylated hIGF-1R-Fc
[3] = target: human IGF-1R(1-903)-Fc (human) (UniProt P08069); assay: ELISA on hIGF-1R-Fc; competitor biotinylated M14-G11; +++++ = 90-100%

Chain of human IGF-1R(1-903)-Fc (human) (P08069 31-933): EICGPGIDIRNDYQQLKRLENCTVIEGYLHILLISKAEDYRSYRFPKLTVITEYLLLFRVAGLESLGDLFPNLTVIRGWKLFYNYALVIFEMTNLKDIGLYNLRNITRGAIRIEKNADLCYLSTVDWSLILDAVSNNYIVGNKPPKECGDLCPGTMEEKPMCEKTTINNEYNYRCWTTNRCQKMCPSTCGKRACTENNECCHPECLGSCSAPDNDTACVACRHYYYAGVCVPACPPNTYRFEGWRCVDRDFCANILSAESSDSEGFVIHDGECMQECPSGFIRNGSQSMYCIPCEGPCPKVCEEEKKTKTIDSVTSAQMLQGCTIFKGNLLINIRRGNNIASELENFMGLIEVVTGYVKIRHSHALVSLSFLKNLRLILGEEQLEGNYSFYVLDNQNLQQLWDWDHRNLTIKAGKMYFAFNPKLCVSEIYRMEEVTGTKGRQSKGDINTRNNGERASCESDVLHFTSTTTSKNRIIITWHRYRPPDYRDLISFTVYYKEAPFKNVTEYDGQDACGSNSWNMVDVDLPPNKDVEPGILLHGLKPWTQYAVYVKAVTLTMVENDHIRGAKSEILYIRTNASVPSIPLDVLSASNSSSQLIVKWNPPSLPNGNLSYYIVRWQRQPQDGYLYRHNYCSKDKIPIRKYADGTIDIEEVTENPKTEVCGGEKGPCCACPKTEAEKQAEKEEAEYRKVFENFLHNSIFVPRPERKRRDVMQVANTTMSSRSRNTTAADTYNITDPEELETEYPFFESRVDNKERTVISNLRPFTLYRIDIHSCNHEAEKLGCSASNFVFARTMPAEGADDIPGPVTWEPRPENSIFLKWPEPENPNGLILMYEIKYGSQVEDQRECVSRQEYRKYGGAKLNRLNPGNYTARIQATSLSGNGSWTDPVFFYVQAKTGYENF

αIR3 antibody
percent competition [1]: 90 to 100% | % IGF-1 (at 320 nM) bound to IGF-1R at saturating antibody concentrations [2]: 23% | IC50 [2]: 4.9 nM | percent competition [3]: 90 to 100%
